# According to US20100135997A1 (MEDGENE, published 2010):
# Target: T1, HLA-A*0201 loaded with the Carcinoembryonic antigen (CEA)-derived … peptide (biotin on the C-terminal biotinylation tag)
# T1 construct: Soluble, biotinylated, immobilised on a streptavidin chip
# Test: Biacore SPR
# How it was run: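 Surface plasmon resonance: soluble ILT-like molecule flowed at constant rate over flow cells bearing biotin-tag-captured peptide–MHC. Binding followed as RU change to derive affinity and kinetics.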
Binder,Kd [nM],koff [s⁻¹]
"SEQ ID NO 22 (receptor, mutated soluble two domain ILT-2) MAGHLPKPTLWAEPGSVITMDQPVTLRCQGGQETQEYRLYREKKTAPWITRIPQELVKKGQFPIPSITWEHAGRYRCYYGSDTSQWSASSDPLELVVTGVYIKPTLSAQPSPVVNSGGNVTLQCDSQVAFDGFILCKEGEDEHPQCLNSQPHARGSSRAIFSVGPVSPSRRWWYRCYAYGRWLPYEWSLPSDLLELDVDG",≤ 1000,≤ 2
"SEQ ID NO 51 (receptor, mutated soluble two domain ILT-2) MAGHLPKPTLWAEPGSVITMDQPVTLRCQGGQETQEYRLYREKKTAPWITRIPQELVKKGQFPIPSITWEHAGRYRCYYGSDTSQWSASSDPLELVVTGVYIKPTLSAQPSPVVNSGGNVTLQCDSQVAFDGFILCKEGEDEHPQCLNSQPHARGSSRAIFSVGPVSPSRRWWYRCYAYPIWTPYEWSLGSDLLELDVDG",≤ 1000,≤ 2
"SEQ ID NO 30 (receptor, mutated soluble two domain ILT-2) MAGHLPKPTLWAEPGSVITQGSPVTLRCQGGQETQEYRLYREKKTAPWITRIPQELVKKGQFPIPSITWEHAGRYRCYYGSDTSQWSASSDPLELVVTGVYIKPTLSAQPSPVVNSGGNVTLQCDSQVAFDGFILCKEGEDEHPQCLNSQPHARGSSRAIFSVGPVSPSRRWWYRCYAYPIWTPYEWSLPSDLLELDVDG",≤ 1000,≤ 2
"SEQ ID NO 45 (receptor, mutated soluble two domain ILT-2) MAGHLPKPTLWAEPGSVITMDQPVTLRCQGGQETQEYRLYREKKTAPWITRIPQELVKKGQFPIPSITWEHAGRYRCYYGSDTSQWSASSDPLELVVTGVYIKPTLSAQPSPVVNSGGNVTLQCDSQVAFDGFILCKEGEDEHPQCLNSQPHARGSSRAIFSVGPVSPSRRWWYRCYAYMSNSPYEWSLPSDLLELDVDG",≤ 1000,≤ 2
"SEQ ID NO 55 (receptor, mutated soluble two domain ILT-2) MAGHLPKPTLWAEPGSVITMDQPVTLRCQGGQETQEYRLYREKKTAPWITRIPQELVKKGQFPIPSITWEHAGRYRCYYGSDTSQWSASSDPLELVVTGVYIKPTLSAQPSPVVNSGGNVTLQCDSQVAFDGFILCKEGEDEHPQCLNSQPHARGSSRAIFSVGPVSPSRRWWYRCYAYPIWTPYEWSSGSDLLELDVDG",≤ 1000,≤ 2
"SEQ ID NO 32 (receptor, mutated soluble two domain ILT-2) MAGHLPKPTLWAEPGSVITQGSPVTLRCQGGQETQEYRLYREKKTAPWITRIPQELVKKGQFPIPSITWEHAGRYRCYYGSDTSQWSASSDPLELVVTGVYIKPTLSAQPSPVVNSGGNVTLQCDSQVAFDGFILCKEGEDEHPQCLNSQPHARGSSRAIFSVGPVSPSRRWWYRCYAYVAWAPYEWSLPSDLLELDVDG",≤ 1000,≤ 2
"SEQ ID NO 38 (receptor, mutated soluble two domain ILT-2) MAGHLPKPTLWAEPGSVITQGSPVTLRCQGGQETQEYRLYREKKTAPWITRIPQELVKKGQFPIPSITWEHAGRYRCYYGSDTSQWSASSDPLELVVTGVYIKPTLSAQPSPVVNSGGNVTLQCDSQVAFDGFILCKEGEDEHPQCLNSQPHARGSSRAIFSVGPVSPSRRWWYRCYAYMSWAPYEWSLPSDLLELDVDG",≤ 1000,≤ 2
"SEQ ID NO 58 (receptor, mutated soluble two domain ILT-2) MAGHLPKPTLWAEPGSVITMDQPVTLRCQGGQETQEYRLYREKKTAPWITRIPQELVKKGQFPIPSITWEHAGRYRCYYGSDTSQWSASSDPLELVVTGVYIKPTLSAQPSPVVNSGGNVTLQCDSQVAFDGFILCKEGEDEHPQCLNSQPHARGSSRAIFSVGPVSPSRRWWYRCYAYDSNSPYEWSQMSDLLELDVDG",≤ 1000,≤ 2
"SEQ ID NO 54 (receptor, mutated soluble two domain ILT-2) MAGHLPKPTLWAEPGSVITMDQPVTLRCQGGQETQEYRLYREKKTAPWITRIPQELVKKGQFPIPSITWEHAGRYRCYYGSDTSQWSASSDPLELVVTGVYIKPTLSAQPSPVVNSGGNVTLQCDSQVAFDGFILCKEGEDEHPQCLNSQPHARGSSRAIFSVGPVSPSRRWWYRCYAYPIWTPYEWSTSSDLLELDVDG",≤ 1000,≤ 2
"SEQ ID NO 57 (receptor, mutated soluble two domain ILT-2) MAGHLPKPTLWAEPGSVITMDQPVTLRCQGGQETQEYRLYREKKTAPWITRIPQELVKKGQFPIPSITWEHAGRYRCYYGSDTSQWSASSDPLELVVTGVYIKPTLSAQPSPVVNSGGNVTLQCDSQVAFDGFILCKEGEDEHPQCLNSQPHARGSSRAIFSVGPVSPSRRWWYRCYAYDSNSPYEWTRGSDLLELDVDG",≤ 1000,≤ 2
"SEQ ID NO 46 (receptor, mutated soluble two domain ILT-2) MAGHLPKPTLWAEPGSVITMDQPVTLRCQGGQETQEYRLYREKKTAPWITRIPQELVKKGQFPIPSITWEHAGRYRCYYGSDTSQWSASSDPLELVVTGVYIKPTLSAQPSPVVNSGGNVTLQCDSQVAFDGFILCKEGEDEHPQCLNSQPHARGSSRAIFSVGPVSPSRRWWYRCYAYDSWSPYEWSLPSDLLELDVDG",≤ 1000,≤ 2
"SEQ ID NO 34 (receptor, mutated soluble two domain ILT-2) MAGHLPKPTLWAEPGSVITQGSPVTLRCQGGQETQEYRLYREKKTAPWITRIPQELVKKGQFPIPSITWEHAGRYRCYYGSDTSQWSASSDPLELVVTGVYIKPTLSAQPSPVVNSGGNVTLQCDSQVAFDGFILCKEGEDEHPQCLNSQPHARGSSRAIFSVGPVSPSRRWWYRCYAYMNWAPYEWSLPSDLLELDVDG",≤ 1000,≤ 2
"SEQ ID NO 59 (receptor, mutated soluble two domain ILT-2) MAGHLPKPTLWAEPGSVITMDQPVTLRCQGGQETQEYRLYREKKTAPWITRIPQELVKKGQFPIPSITWEHAGRYRCYYGSDTSQWSASSDPLELVVTGVYIKPTLSAQPSPVVNSGGNVTLQCDSQVAFDGFILCKEGEDEHPQCLNSQPHARGSSRAIFSVGPVSPSRRWWYRCYAYDSNSPYEWSSGSDLLELDVDG",≤ 1000,≤ 2
"SEQ ID NO 47 (receptor, mutated soluble two domain ILT-2) MAGHLPKPTLWAEPGSVITMDQPVTLRCQGGQETQEYRLYREKKTAPWITRIPQELVKKGQFPIPSITWEHAGRYRCYYGSDTSQWSASSDPLELVVTGVYIKPTLSAQPSPVVNSGGNVTLQCDSQVAFDGFILCKEGEDEHPQCLNSQPHARGSSRAIFSVGPVSPSRRWWYRCYAYMSNAPYEWSLPSDLLELDVDG",≤ 1000,≤ 2
"SEQ ID NO 48 (receptor, mutated soluble two domain ILT-2) MAGHLPKPTLWAEPGSVITMDQPVTLRCQGGQETQEYRLYREKKTAPWITRIPQELVKKGQFPIPSITWEHAGRYRCYYGSDTSQWSASSDPLELVVTGVYIKPTLSAQPSPVVNSGGNVTLQCDSQVAFDGFILCKEGEDEHPQCLNSQPHARGSSRAIFSVGPVSPSRRWWYRCYAYDSWAPYEWSLPSDLLELDVDG",≤ 1000,≤ 2
"SEQ ID NO 23 (receptor, mutated soluble two domain ILT-2) MAGHLPKPTLWAEPGSVITMDQPVTLRCQGGQETQEYRLYREKKTAPWITRIPQELVKKGQFPIPSITWEHAGRYRCYYGSDTSQWSASSDPLELVVTGVYIKPTLSAQPSPVVNSGGNVTLQCDSQVAFDGFILCKEGEDEHPQCLNSQPHARGSSRAIFSVGPVSPSRRWWYRCYAYVEWLPYEWSLPSDLLELDVDG",≤ 1000,≤ 2
"SEQ ID NO 36 (receptor, mutated soluble two domain ILT-2) MAGHLPKPTLWAEPGSVITQGSPVTLRCQGGQETQEYRLYREKKTAPWITRIPQELVKKGQFPIPSITWEHAGRYRCYYGSDTSQWSASSDPLELVVTGVYIKPTLSAQPSPVVNSGGNVTLQCDSQVAFDGFILCKEGEDEHPQCLNSQPHARGSSRAIFSVGPVSPSRRWWYRCYAYPAWTPYEWSLPSDLLELDVDG",≤ 1000,≤ 2
"SEQ ID NO 40 (receptor, mutated soluble two domain ILT-2) MAGHLPKPTLWAEPGSVITQGSPVTLRCQGGQETQEYRLYREKKTAPWITRIPQELVKKGQFPIPSITWEHAGRYRCYYGSDTSQWSASSDPLELVVTGVYIKPTLSAQPSPVVNSGGNVTLQCDSQVAFDGFILCKEGEDEHPQCLNSQPHARGSSRAIFSVGPVSPSRRWWYRCYAYMSWSPYEWSLPSDLLELDVDG",≤ 1000,≤ 2
"SEQ ID NO 44 (receptor, mutated soluble two domain ILT-2) MAGHLPKPTLWAEPGSVITMDQPVTLRCQGGQETQEYRLYREKKTAPWITRIPQELVKKGQFPIPSITWEHAGRYRCYYGSDTSQWSASSDPLELVVTGVYIKPTLSAQPSPVVNSGGNVTLQCDSQVAFDGFILCKEGEDEHPQCLNSQPHARGSSRAIFSVGPVSPSRRWWYRCYAYPAYTPYEWSLPSDLLELDVDG",≤ 1000,≤ 2
"SEQ ID NO 53 (receptor, mutated soluble two domain ILT-2) MAGHLPKPTLWAEPGSVITMDQPVTLRCQGGQETQEYRLYREKKTAPWITRIPQELVKKGQFPIPSITWEHAGRYRCYYGSDTSQWSASSDPLELVVTGVYIKPTLSAQPSPVVNSGGNVTLQCDSQVAFDGFILCKEGEDEHPQCLNSQPHARGSSRAIFSVGPVSPSRRWWYRCYAYPIWTPYEWTRGSDLLELDVDG",≤ 1000,≤ 2
"SEQ ID NO 43 (receptor, mutated soluble two domain ILT-2) MAGHLPKPTLWAEPGSVITMDQPVTLRCQGGQETQEYRLYREKKTAPWITRIPQELVKKGQFPIPSITWEHAGRYRCYYGSDTSQWSASSDPLELVVTGVYIKPTLSAQPSPVVNSGGNVTLQCDSQVAFDGFILCKEGEDEHPQCLNSQPHARGSSRAIFSVGPVSPSRRWWYRCYAYMSYSPYEWSLPSDLLELDVDG",≤ 1000,≤ 2
"SEQ ID NO 52 (receptor, mutated soluble two domain ILT-2) MAGHLPKPTLWAEPGSVITMDQPVTLRCQGGQETQEYRLYREKKTAPWITRIPQELVKKGQFPIPSITWEHAGRYRCYYGSDTSQWSASSDPLELVVTGVYIKPTLSAQPSPVVNSGGNVTLQCDSQVAFDGFILCKEGEDEHPQCLNSQPHARGSSRAIFSVGPVSPSRRWWYRCYAYPIWTPYEWSQMSDLLELDVDG",≤ 1000,≤ 2
"SEQ ID NO 56 (receptor, mutated soluble two domain ILT-2) MAGHLPKPTLWAEPGSVITMDQPVTLRCQGGQETQEYRLYREKKTAPWITRIPQELVKKGQFPIPSITWEHAGRYRCYYGSDTSQWSASSDPLELVVTGVYIKPTLSAQPSPVVNSGGNVTLQCDSQVAFDGFILCKEGEDEHPQCLNSQPHARGSSRAIFSVGPVSPSRRWWYRCYAYPIWTPYEWTLGSDLLELDVDG",≤ 1000,≤ 2
